The source of these data is publication PMC5774872.

B1: unnamed (parent)
chain 1: MSAAILLAPGDVIKRSSEELKQRQIQINLVDWMESEGGKEDKTEPKEESKAEGSKDGEGTQSESGQKEEGGKETKDADVDRRIHTAVGSGSGTKGSGERANENANRGDGKVGGGGGDADAGVGATGTNGGRWVVLTEEIARAIESKYGTKIDVYRDEVPAQIIEVERSLQKELGISREGVAEQTERLRDLRRKEKNGTHAKAVERGGRKQRKKAHGDAQREGVEEEKTSEEPARIGITIEGVMSQKKLLSMIGGVERKMAPIGARESAVMLVSNSIKDVVRATAYFTAPTGDPHWKEVAREASKKKNILAYTSTGGDVKTEFLHLIDHL
chain 2: MAAQNEQRPERIKTTPYLEGDVLSSDSGPLLSVFALQEIMQKVRQVQADYMTATREVDFTVPDVQQILDDIKALAAAQVYKIVKVPSTSFRHIVTQSRDRVLRVDTYYEEMSQVGDVITEDEPEKFYSTIIKKVRFIRGKGSFILHDIPARDHRGMEVAEPEVLGVEFKNVLPVLTAEHRAMIQNALDGSIIENGNVATRDVDVFIGACSEPFYRIYNRFQGYIEAVQLQELRNSIGWLERLGQRKRITYSQEVLTDFRRQDMIWVLALQLPVNPQVVWDVPRSSIANLIMNIATCLPTGEYIAPNPRISSITLTQRITTTGPFAILTGSTPTAQQLNDVRKIYLALMFPGQIILDLKIDPGERMDPAVRMVAGVVGHLLFTAGGRFTNLTQNMARQLDIALNDYLLYMYNTRVQVNYGPTGEPLDFQIGRNQYDCNVFRADFATGTGYNGWATIDVEYRDPAPYVHAQRYIRYCGIDSRELINPTTYGIGMTYHCYNEMLRMLVAAGKDSEAAYFRSMLPFHMVRFARINQIINEDLHSVFSLPDDMFNALLPDLIAGAHQNADPVVLDVSWISLWFAFNRSFEPTHRNEMLEIAPLIESVYASELSVMKVDMRHLSLMQRRFPDVLIQARPSHFWKAVLNDSPEAVKAVMNLSHSHNFINIRDMMRWVLLPSLQPSLKLVLEEEAWAAANDFEDLMLTDQVYMHRDMLPEPRLDDIERFRQEGFYYTNMLEAPPEIDRVVQYTYEIARLQANMGQFRAALRRIMDDDDWIGFGGVLRTVRVKFFDARPPDDILQGLPFSYDTNEKGGLSYATIKYATETTIFYLIYNVEFSNTPDSLVLINPTYTMTKVFINKRIVERVRVGQILAVLNRRFVAYKGKMRIMDITQSLKMGTKLAAPTV
B2: unnamed (parent)
chain 1: B1 chain 2
chain 2: B1 chain 1

The first test covers variants of B1. As to the kind of experiment: coimmunoprecipitation (IP anti-HA MAb), immunoblot gray-value analysis. Conditions: with partner chain of the complex shown, five experiments, means ± SDs, parent: 100, read off a plot. For orientation: A western blot detects proteins with antibodies after separation by electrophoresis.
For chain 1 Y285A, the percent of parent was 7 % of WT.

As to chain 1 F286A, the percent of parent was 18 % of WT.

On to chain 1 A282G A284G, for which the percent of parent is 42 % of WT.

Take chain 1 R281A: the percent of parent was 100 % of WT.

As for chain 1 R281A F286A, the percent of parent was 1 % of WT.

With chain 1 Y285A F286A, the percent of parent is 2 % of WT.

The next test covers variants of B2. Kind of test: coimmunoprecipitation (IP anti-Flag MAb), immunoblot gray-value analysis. To be noted: with partner chain of the complex shown, five experiments, means ± SDs, parent: 100, read off a plot.
As for chain 2 R281A F286A, the percent of parent was 19 % of WT.

Consider chain 2 F286A, for which the percent of parent is 57 % of WT.

Consider chain 2 Y285A, for which the percent of parent was 1 % of WT.

Regarding chain 2 R281A, the percent of parent was 130 % of WT.

Consider chain 2 A282G A284G, for which the percent of parent was 45 % of WT.

chain 2 R281A Y285A F286A: the percent of parent was 2 % of WT.

Regarding chain 2 R281A Y285A, the percent of parent was 4 % of WT.

For chain 2 Y285A F286A, the percent of parent is 2 % of WT.
